Data on five variants can be found in IntAct's records for PubMed 29892012.

B1: Coiled-coil alpha-helical rod protein 1 (Homo sapiens), Q8TD31 (parent)
chain: MFPPSGSTGLIPPSHFQARPLSTLPRMAPTWLSDIPLVQPPGHQDVSERRLDTQRPQVTMWERDVSSDRQEPGRRGRSWGLEGSQALSQQAEVIVRQLQELRRLEEEVRLLRETSLQQKMRLEAQAMELEALARAEKAGRAEAEGLRAALAGAEVVRKNLEEGSQRELEEVQRLHQEQLSSLTQAHEEALSSLTSKAEGLEKSLSSLETRRAGEAKELAEAQREAELLRKQLSKTQEDLEAQVTLVENLRKYVGEQVPSEVHSQTWELERQKLLETMQHLQEDRDSLHATAELLQVRVQSLTHILALQEEELTRKVQPSDSLEPEFTRKCQSLLNRWREKVFALMVQLKAQELEHSDSVKQLKGQVASLQEKVTSQSQEQAILQRSLQDKAAEVEVERMGAKGLQLELSRAQEARRRWQQQTASAEEQLRLVVNAVSSSQIWLETTMAKVEGAAAQLPSLNNRLSYAVRKVHTIRGLIARKLALAQLRQESCPLPPPVTDVSLELQQLREERNRLDAELQLSARLIQQEVGRAREQGEAERQQLSKVAQQLEQELQQTQESLASLGLQLEVARQGQQESTEEAASLRQELTQQQELYGQALQEKVAEVETRLREQLSDTERRLNEARREHAKAVVSLRQIQRRAAQEKERSQELRRLQEEARKEEGQRLARRLQELERDKNLMLATLQQEGLLSRYKQQRLLTVLPSLLDKKKSVVSSPRPPECSASAPVAAAVPTRESIKGSLSVLLDDLQDLSEAISKEEAVCQGDNLDRCSSSNPQMSS
partner: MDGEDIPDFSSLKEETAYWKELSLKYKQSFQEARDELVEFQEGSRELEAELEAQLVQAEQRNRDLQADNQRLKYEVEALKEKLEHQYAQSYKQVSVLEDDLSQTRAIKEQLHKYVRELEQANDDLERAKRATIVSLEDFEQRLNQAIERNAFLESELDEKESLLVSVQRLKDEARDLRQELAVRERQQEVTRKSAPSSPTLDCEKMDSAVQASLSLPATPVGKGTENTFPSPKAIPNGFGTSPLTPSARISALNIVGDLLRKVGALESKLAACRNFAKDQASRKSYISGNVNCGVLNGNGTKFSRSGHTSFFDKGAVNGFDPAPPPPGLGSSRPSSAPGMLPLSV
B2: Inactive peptidyl-prolyl cis-trans isomerase FKBP6 (Homo sapiens), O75344 (parent)
chain: MGGSALNQGVLEGDDAPGQSLYERLSQRMLDISGDRGVLKDVIREGAGDLVAPDASVLVKYSGYLEHMDRPFDSNYFRKTPRLMKLGEDITLWGMELGLLSMRRGELARFLFKPNYAYGTLGCPPLIPPNTTVLFEIELLDFLDCAESDKFCALSAEQQDQFPLQKVLKVAATEREFGNYLFRQNRFYDAKVRYKRALLLLRRRSAPPEEQHLVEAAKLPVLLNLSFTYLKLDRPTIALCYGEQALIIDQKNAKALFRCGQACLLLTEYQKARDFLVRAQKEQPFNHDINNELKKLASCYRDYVDKEKEMWHRMFAPCGDGSTAGES
partner: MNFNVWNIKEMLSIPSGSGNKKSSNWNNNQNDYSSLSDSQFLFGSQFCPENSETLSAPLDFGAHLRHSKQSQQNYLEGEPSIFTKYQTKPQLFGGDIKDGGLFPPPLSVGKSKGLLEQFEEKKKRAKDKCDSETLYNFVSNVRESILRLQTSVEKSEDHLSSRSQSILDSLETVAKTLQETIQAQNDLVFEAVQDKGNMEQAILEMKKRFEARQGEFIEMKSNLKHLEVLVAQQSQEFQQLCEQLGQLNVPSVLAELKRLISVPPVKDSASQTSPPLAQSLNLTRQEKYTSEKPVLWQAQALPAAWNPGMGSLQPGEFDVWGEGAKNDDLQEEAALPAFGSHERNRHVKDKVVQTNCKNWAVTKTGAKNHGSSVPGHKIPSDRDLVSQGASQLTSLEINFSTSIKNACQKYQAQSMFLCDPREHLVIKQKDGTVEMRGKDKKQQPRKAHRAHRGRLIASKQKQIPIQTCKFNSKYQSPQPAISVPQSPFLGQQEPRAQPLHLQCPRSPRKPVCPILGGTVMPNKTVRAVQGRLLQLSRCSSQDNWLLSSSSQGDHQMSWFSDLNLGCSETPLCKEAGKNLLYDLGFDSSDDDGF
B3: Glutaredoxin-3 (Homo sapiens), O76003 (parent)
chain: MAAGAAEAAVAAVEEVGSAGQFEELLRLKAKSLLVVHFWAPWAPQCAQMNEVMAELAKELPQVSFVKLEAEGVPEVSEKYEISSVPTFLFFKNSQKIDRLDGAHAPELTKKVQRHASSGSFLPSANEHLKEDLNLRLKKLTHAAPCMLFMKGTPQEPRCGFSKQMVEILHKHNIQFSSFDIFSDEEVRQGLKAYSSWPTYPQLYVSGELIGGLDIIKELEASEELDTICPKAPKLEERLKVLTNKASVMLFMKGNKQEAKCGFSKQILEILNSTGVEYETFDILEDEEVRQGLKAYSNWPTYPQLYVKGELVGGLDIVKELKENGELLPILRGEN
partner: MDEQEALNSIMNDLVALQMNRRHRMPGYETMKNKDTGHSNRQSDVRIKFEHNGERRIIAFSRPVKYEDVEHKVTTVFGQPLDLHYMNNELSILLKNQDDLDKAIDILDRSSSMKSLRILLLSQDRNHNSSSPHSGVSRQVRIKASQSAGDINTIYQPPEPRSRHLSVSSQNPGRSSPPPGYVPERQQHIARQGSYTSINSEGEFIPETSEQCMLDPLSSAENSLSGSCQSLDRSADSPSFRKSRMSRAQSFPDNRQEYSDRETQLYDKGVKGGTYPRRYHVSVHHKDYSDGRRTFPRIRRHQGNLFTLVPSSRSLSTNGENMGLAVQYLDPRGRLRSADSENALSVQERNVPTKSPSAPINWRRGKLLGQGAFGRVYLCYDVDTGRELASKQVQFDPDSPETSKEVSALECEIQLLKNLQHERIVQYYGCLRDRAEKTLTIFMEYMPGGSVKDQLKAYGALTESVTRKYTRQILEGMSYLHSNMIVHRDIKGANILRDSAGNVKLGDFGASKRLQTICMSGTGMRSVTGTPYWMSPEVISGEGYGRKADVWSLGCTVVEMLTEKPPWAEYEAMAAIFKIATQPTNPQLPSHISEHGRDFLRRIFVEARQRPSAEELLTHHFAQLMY
B4: Glutaredoxin-3 (Homo sapiens), O76003 (parent)
chain: B3 chain
partner: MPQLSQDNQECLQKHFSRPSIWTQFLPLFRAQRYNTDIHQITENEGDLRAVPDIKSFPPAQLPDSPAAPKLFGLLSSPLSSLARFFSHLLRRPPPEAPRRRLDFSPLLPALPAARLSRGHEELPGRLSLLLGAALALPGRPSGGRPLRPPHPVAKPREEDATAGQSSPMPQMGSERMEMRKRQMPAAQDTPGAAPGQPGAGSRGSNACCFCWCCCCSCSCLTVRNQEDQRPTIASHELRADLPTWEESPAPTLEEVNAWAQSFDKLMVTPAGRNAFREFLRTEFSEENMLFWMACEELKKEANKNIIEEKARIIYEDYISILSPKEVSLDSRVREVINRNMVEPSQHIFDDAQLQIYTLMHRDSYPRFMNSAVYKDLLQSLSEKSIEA
B5: Coiled-coil alpha-helical rod protein 1 (Homo sapiens), Q8TD31 (parent)
chain: B1 chain
partner: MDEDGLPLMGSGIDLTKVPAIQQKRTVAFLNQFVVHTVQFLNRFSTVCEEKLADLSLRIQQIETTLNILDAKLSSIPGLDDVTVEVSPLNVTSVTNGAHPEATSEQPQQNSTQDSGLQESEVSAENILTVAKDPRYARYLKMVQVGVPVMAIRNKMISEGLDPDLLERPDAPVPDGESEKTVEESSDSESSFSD

In one assay the parent is B1. The settings on record: with ndel1_human NDEL1, Q9GZM8.
For the variant W337R, the “effect of a mutation on the interaction” value is “disrupting interaction strength”.

The variants in the next assay derive from B2. The settings on record: with iho1_human IHO1, Q8IYA8.
As to L246F, the “effect of a mutation on the interaction” value was “disrupting interaction strength”.

The variants in a further assay derive from B3. The settings on record: with m3k3_human MAP3K3, Q99759.
For the variant P145A, the “effect of a mutation on the interaction” value is recorded as “with no effect”.

Variants of B4 are the subject of another assay. To be noted: with rgs20_human RGS20, O76081.
Consider P145A, for which the “effect of a mutation on the interaction” value is “with no effect”.

The variants in a further assay derive from B5. To be noted: with wasc3_human WASHC3, Q9Y3C0.
Take W337R: the “effect of a mutation on the interaction” value is recorded as “disrupting interaction strength”.
